Source: paper PMC10655040

Target: CXCR4 (human (endogenous in HeLa)) (UniProt P61073)
Assay: flow cytometry on cells; competition on HeLa cells: 100 nM sfGFP(Y151pAzF)-SDF-1β coincubated with 1 μM commercial SDF-1β (R&D) or 1 μM CXCR4 blocking agent AMD3100; 10 000 cells per sample

Chain of UniProt P61073 (P61073 whole entry): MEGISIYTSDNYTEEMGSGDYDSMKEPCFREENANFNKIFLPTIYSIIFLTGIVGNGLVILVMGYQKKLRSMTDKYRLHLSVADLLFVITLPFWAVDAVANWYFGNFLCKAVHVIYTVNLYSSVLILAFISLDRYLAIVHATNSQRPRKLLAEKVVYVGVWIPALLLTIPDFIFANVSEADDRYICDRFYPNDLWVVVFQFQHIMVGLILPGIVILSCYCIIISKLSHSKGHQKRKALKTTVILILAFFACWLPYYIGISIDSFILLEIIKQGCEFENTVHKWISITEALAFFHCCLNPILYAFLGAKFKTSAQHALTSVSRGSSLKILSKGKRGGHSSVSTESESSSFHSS

percent decrease of binding to HeLa cells with 1 μM AMD3100 (CXCR4 blocking agent): 30%
Substance: sfGFP(Y151pAzF)-SDF-1β (ligand)
